Test results reported in the nanobody polyreactivity screen of Harvey et al. (2022).

Assay: yeast display, Sf9 membrane polyspecificity reagent, FACS + sequencing; frameworks hold sequencing errors
How it was run: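 Polyreactivity labels are assigned by the sorting gate from which each nanobody was recovered. The gates were low and high (top ~1%), set on anti-HA fluorescence for expression and streptavidin fluorescence for reagent binding. Before sorting, galactose-induced (36–48 hours) yeast display cells were stained for 1 hour at 4 °C with 10% biotinylated, detergent-solubilized Sf9 membrane reagent.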

Row | Sequence | polyreactivity (PSR sort gate)
1 | QDQLVESRVGLVQAGGSLRLSCAATGFTFLSYTMGWYIQAPCKERELLADNTRSGGSTYYADSVKGRFTISRDNAKNSVYLQMNSLKPEDTAVYFCAARYSYDRYRGSQQFYYWGQGTQVTVSS | high polyreactivity
2 | QVQLVESGGGLFQAGGSLRLSCAASGRIFVFYTMGWYRQAPGKERELVASINSGGSTYYADSVKGRFTISRDNAKNTVYLQMNSLKPEDTAVYYCAASRTRRGVRQFDYWGQGTQVTVSS | high polyreactivity
3 | QVQLVESGGGLVQAGGSLRLSCAASGITFGDNAMGWYRQAPGKERELVAAITLSDVDTYADSVKGRFTISRDNAKNTVYLQMNSLKPEDTAVYYCAADYDFFSSKRFDYWGQGTQVTVSS | low polyreactivity
4 | QVQLVESGGGLVQAGGSLRLTCAASGRIFNIYAMGWYRQAPGKERELVAAISVSGTRTYYADSVKGRFTISRDNAKNTVYLHMNSLKPEDTAVYYCAADSYGGVWTEHMYYWGQGTQVTVSS | low polyreactivity
5 | QVQHVESGGGLLQAGGSLRLSCAASGRTFGRYAMGWYRPAPGKERELVADIDYGGGSTYYADSVKGRFTISRDNAKNTFYLQMNSLKPEDTAVYYCNAGRDIGWGYHMDYWGQGTQVTVSS | high polyreactivity
6 | QVQIVESGGGLVQAGGSLPLSCDASGITFERYDMGWYRQAPGKERELGAAISTTGGRTYYADSVKGRFTISRDNAKNSVYLQMNSLKPEDTAVYYCAARYTTRRRYDYWGQGTQVTVSS | high polyreactivity
7 | QVQLVESGGGLVQAGGRLRLSCAASGSTFYLNAMGWYRQAPGQERELVAAINGGGSTNYADSVKGRFTISRDNAKNTVYLQRNSLKPEDTAVYYCAAETSYANRDRFDYWGQGTQVTVSS | low polyreactivity
8 | QVQLVESGGGLVQAGGSLRLSCAASGNTFEFYAMGWYRQAPGKERELVAAISASGGRTYYADSVKGRFTISRDNAKNTVYLQMNSLKPEDTAVYYCAAVRKSTRFDYWGQGTQVTVSS | high polyreactivity
9 | QVHLVESGGGLDQAGGSLRLSCAASGSISLIYAMGWYRQAPGKERELVAAITSSGGSTYYADSVKGRFTISRDNAKNTVYLQMNSLKREDTAVYYCAAERWTRRHYSGNDYWGQGTQVTVSS | low polyreactivity
10 | QVQLVESGGGLVQAGGSLRLSCAASGSTFTFNAMGWYRQAPGKERELVAAITSRGGSTYYADSVKGRFTISRDNAKNTVYLQMNSLKPEDTAVYYCAATLRGQKTRREYWGQGTQVTVSS | high polyreactivity
11 | QVQLVESGGGLVQAGGSLRLSCAASGSTFAYYAMGWSRQAPGKERELVASISWRGGSTYYADSVKGRFTNSRDNAKNTVYLQMNSLKPEDTAVYYCAAGRFYIWSRSQEYDYWGQGTQVTVSS | low polyreactivity
12 | QVQLVESGGGLVQAGGSLRLSCAASGRIFRGNAMGWFRQAPGKERELVASISTSGVRTFYADSVKGRFTISRDNAKNTVYLQMNSLKPEDTAVYDCNKRDRYRMYGFNYWGQGTQVTVSS | high polyreactivity
13 | QVQLVESGGGLVQAGGSLRLSCAASGRIFAYYAMGWYRQAPGKERELVAAINTSGAPTNYADSVKGRFTISRDNAKNTVYLQMISLKPEDTAVYYCAARRARYHVEYYYWGQGTQVTVSS | high polyreactivity
14 | QVQLVESGGGLVQAGGSLRLSCAASGITFTYYAMGWYRQAPGKERELVAAINWNGGSTYYADSVKGRFTISRDNAKNTVYLQMNSLKPEDTAVYYCAAEFYIYGFVKFDYWGQGTQVTVSS | high polyreactivity
15 | QVQLVESGGGLVQAGGSLRLSCAASGRIFRRYAMGWYRQAPGKERELVADITYGVDSTYYADSVKGRFTISRDNAKNTVYLQMNSLKPEDTAVYYCNADRTEDLLYRFVGVTYGYWGQGTQVSVSS | high polyreactivity
16 | QVQLVESGGGLVHAGGSLRLTCAASGLTFAYYAMGWYRQAPGKERELVAAISWNGGRTYNADSVKGRFTISRDNAKNTVYLQMNSLKPEDTAVYYCAAQVTSSFYWGQGTQVTVSS | high polyreactivity
17 | QVQLVESGGGLVQAGGSLRLSCAASGITFGGNAMGWYRQATGKERELVAGINRSGVSTYYADSVKGRFTISRDNAKNTVYFQMNSLKPEDTAVYYCATGYFSWIYGYYYWGQGTQVTVSS | high polyreactivity
18 | QVQLVESGGGLVQAGGSLRLSCAASGRTFYGYAMGWYRQAPGKERELVASISRDASTNYADSVKGRFTISRDNAKNTVYLQMNSLKPEDTAVYYCAADIWYYRYPIYYYSYDYWGLGTQVTVSS | low polyreactivity
19 | QVQLVESGGGLVQAGGSLRLSCAASGSIFTWYAMGWYRQAPGKERELVAAITTSGGSTYYADSVKGRFTISRDNAKNTVYLQMNSLKPEDTAVYYCAKDGDYLFYYYGYDYWGQGTQVTVSS | low polyreactivity
20 | QVQLVESGGGLVQAGGSLRLSCAASGRTFSQYAMGWYRQAPGKERELVAAITKNGGRTYYADSVKGRFTISRDNAKNTVYLQMNSLKPEDTAVYYCNARGGRYAGKLDYWGQGTQVTVSS | high polyreactivity
21 | QVQLVESGGGLVQAGGSLRLSCAASGSIFYTYAMGWYRPAPGKEREFVAAITSSGGSTYYADSVKGRFTISRDNAKNTVYLQMNSLKPEDTAVYYCAARTPHYGKCYDIFDYWGQGTQVTVSS | low polyreactivity
22 | QVQLVESGGGLVQAGGSLRLSCAASGRTSLVYAMGWYRQAPGKERELVAAITSSGGTTYYADSVKGRFTISRDNAKNTVYLQMNSLKPEDTAVYYCAADVDVSYWRMEYWGQGTQVTVSS | high polyreactivity

Row | Sequence | polyreactivity (PSR sort gate)
23 | QVQLVESGGGLVQAGGSLRLSCAASGSIFYPYAMGWYRQAPGKERELVAAISSSGGSTYYADSVKGRFTISRDNAKNTVYLQMNSLKPEDTAVYYCAADAATGIFDRLNYWGQGTQVTVSS | high polyreactivity
24 | QVQLVESGGGLVQAGGSLRLSCAASGRIFGVYALGWYRQAPGKARELVAVINGRGSRTYYADSVKGRFRISRDNAKNTVYLQMNSLKPEDTAVYYCAAGYPASEYDYWGQGTQVTVSS | high polyreactivity
25 | QVQLVESGGGLVQAGGSLRLSCAASGFTFRVYAMGWNRQAPGKEREFVASITWGGGRPYYADSVKGRFTISRDNAKNTVYLQMNSLKPEDTAVYYCAAYGRLDSYVSYYYWGQGTQVTVSS | high polyreactivity
26 | QVQLVESGGGLVQAGGSLRFSCAASGSTFYAYAMGWYRQAAGQERELVAAIDSGGSTYYADSVKGRFTISRDNAKNTLYLQKNSLNPEDTAVYYCAVRHRYTRAYWGRDYWGQGTQVTVSS | low polyreactivity
27 | QVQLVESGGGLVQAGGSLRLSCAASGRIFRYYVMGWYRQAPGKERELVAAISRSGGSTRYADSVKGRFTISRDNAKNTVYLQMNSLKPEDTAVYYCAATSRSYNDYDYWGQGTQVTVSS | high polyreactivity
28 | QFQLVESGGGLVQAGGSLRLSCAASGRIFNYYAMGWYRQAPGKERELVAAISARGGSTYYADSVKGRFTISRDNAKNTVYLQMNSLKPEDTAVYYCAVSSGSYGYGYWGQGTQVTVSS | high polyreactivity
29 | QVQLVESGGGIVQAGGSLRLSCAASGRTFLQNAMGWYRQAPGKERELVATINYSGSSTYYADSVKGRFTISRDNAKKTVYLQMNSLKPEDTAVYYCNRDVPYRLVYYANYYRGQGTQVTVSS | low polyreactivity
30 | QVQLVESGGGLVQAGGSLRLSCAASGSTFDYYAMGWYRQAPGKERELVAAISRTGGRTYYADSVKGRFTISRDNAKNTVYLQMNSLKPEDTAVYYCNAVTRIGGGDYDYWGQGTQVTGSS | low polyreactivity
31 | HVQLVESGGGLVQAGGSLRLSCAASGIIFPIYAMGWYRQAARKERELVASISQSGASTYYADSVKGRFTISRDNAKNTVYLQMNSLNPEDTGVYYCAALNGVGPWQLSYEEFDYWGQGTQVTVSS | low polyreactivity
32 | QVQLVESGGGLVQAGGSLRLSCAASGSTLEYYAMGWYRQAPGKERELVAAITYSGGDTYYADSVKGRFTISRDNAKNTVYLQMNSLKPEDTAVYYCAAEALYYPYETYDYWGQGTQVTVSS | high polyreactivity
33 | QVQLVESGGGLVQAGGSLRLSCAASGRILASYAMGWYRQAPGKERELVAAISRSGGSTYYADSVKGRFTISRDNAKNTVYLQMNSLKPEDTAVYYCAAKYPQKTPVNSYGILDSWGQGTQVTVSS | high polyreactivity
34 | QVRLVESGGGLVQAGGSLRLSCAASGSIFDVYAMGCYRQAPGKERELVATISYGDSSTYYADSVKGRFTISRDTAKNTVYLQMNSLKPEDTAVYYCAADYLTAPRWRQWGEMDYWGQGTQVTVSS | low polyreactivity
35 | QVQLVESGGGLVQAGGSLRLSCAASGFIFYRYAMGWYRQAPGKEREFVAVISRSGDRTNYADSVKGRFTISRDNAKNTVYLQMNSLKPEDTAVYYCNTDSRSAHGYWGQGTQVTVSS | high polyreactivity
36 | QVQLVESGGGLVQAGGSLRLSCAASGNTFTTYAMGWYRQAPGKERELVAVISRSGGRTYYADSVKGRFTISRDNAKNTVYLQMNSLKPEDTAVYYCATRTYATSEYGYWGQGTQVTVSS | high polyreactivity
37 | QVQLVESGRGLVQAGGSLRLSCAASGSTFQSNAMGWYRQATGKERELVAAIDQSGGSTYYADSVKGRFTISRHNAKNTVYLQMNSLKPEDSAVYYCAAEYYYPQQPRKWYGYWGQGTQVTVSS | high polyreactivity
38 | QVQLVESGGGLVQAGGSLRLSCAASGSTFKVYAMGWYRQAPGKERELVATISKSGSTYADSVKGRFTISRDNAKNTVYLQMNCLKPEDTAVYYCAADLYTYPRTRRRAYGYWGQGTQVTVSS | high polyreactivity
39 | QVQLVESGGGLVQAGGSHRLSCAASGRTFPFYAMGWYRQAPGTERELVADITSSGGSTYYADSVKGRFTISRDNAKNTVYLQMNSLKPEDSAVYYCAADPIDISYWEFDYWGQGTQVTVSS | low polyreactivity
40 | QVQLVESGGGLVQAGGSLRLSCAASGRIFPSYAMGRYRQAPGKERELVAAISRSGGRTYYADSVKGRFTISRDNAKNTVYFQMNSLKPEDTAVYYCARYGPYQSSYHYDYWGQGSQVTVSS | high polyreactivity
41 | QVQLVESGGGLVQAGGSLRLSCAPSGSIFPYYAMGWYRQAPGKERELVAVITTSGGRTYYADSVKGRFTISRDNAKNTVYLQMNSLKPEDTAVYYCATDVRQGSGWRYYYWGQGTQVTVSS | high polyreactivity
42 | QVQLVESGGGLVQAGGSLRLSCAASGITFYRYDMVWYRQAPGKERELVAAISRSGGSTYYADSVKGRFTISRDNAKNTVYLQMNSLKPEDSAVYYCAAYILGNRDGYDYWGQGTQVTVSS | high polyreactivity
43 | QVQLVESGGGLVQAGGSLRLSCAASGSTFSAYDMGWYRQAPGKERELVAAIDTGGTTYYADSVKGRFTISRDTAKNTVYVQMNSLKPEDTAVYYCIATIWYRDYGYWGQGTQVTVSS | low polyreactivity
